Where “and” joins values, the source holds several entries; their conditions need not be identical. Identical values can stand only once.
How the values were obtained:
…-Toyopearl resin = assay: affinity chromatography
FFNFFKG-Toyopearl resin [1] = assay: affinity chromatography
KWWIWAG-Toyopearl resin = assay: affinity chromatography
KFNHWFG-Toyopearl resin [2] = assay: batch adsorption isotherm
WKAHNKG-Toyopearl resin = assay: affinity chromatography
[3] = biological target: the peptide-based adsorbents; assay: affinity chromatography
KFNHWFG-Toyopearl resin [4] = assay: affinity chromatography
WWIKISG-Toyopearl resin = assay: affinity chromatography
GYISRHPG-Toyopearl resin = assay: affinity chromatography
FNHFFIG-Toyopearl resin = assay: affinity chromatography
KFNHWFG-Toyopearl resin [5] = assay: breakthrough chromatography
FFNFFKG-Toyopearl resin [6] = assay: breakthrough chromatography

Row | Substance | yield (AAV titer in elution fraction vs. load) (…-Toyopearl resin) | yield (AAV titer in elution fraction vs. load) (FFNFFKG-Toyopearl resin [1]) [%] | yield (AAV titer in elution fraction vs. load) (KWWIWAG-Toyopearl resin) [%] | Kd (KFNHWFG-Toyopearl resin [2]) [pM] | loss (AAV titer in flow-through and wash vs. load) (…-Toyopearl resin) [%] | loss (AAV titer in flow-through and wash vs. load) (WKAHNKG-Toyopearl resin) [%] | yield (AAV titer in elution fraction vs. load) (WKAHNKG-Toyopearl resin) [%] | loss (AAV titer in flow-through and wash vs. load) [3] [%] | yield (AAV titer in elution fraction vs. load) [3] [%] | loss (AAV titer in flow-through and wash vs. load) (KFNHWFG-Toyopearl resin [4]) [%] | yield (AAV titer in elution fraction vs. load) (KFNHWFG-Toyopearl resin [4]) [%] | loss (AAV titer in flow-through and wash vs. load) (WWIKISG-Toyopearl resin) [%] | loss (AAV titer in flow-through and wash vs. load) (GYISRHPG-Toyopearl resin) [%] | loss (AAV titer in flow-through and wash vs. load) (FNHFFIG-Toyopearl resin) [%] | loss (AAV titer in flow-through and wash vs. load) (FFNFFKG-Toyopearl resin [1]) [%] | loss (AAV titer in flow-through and wash vs. load) (KWWIWAG-Toyopearl resin) [%] | DBC10% (dynamic binding capacity at 10% breakthrough) (vp AAV per mL of resin) (KFNHWFG-Toyopearl resin [5]) | DBC10% (dynamic binding capacity at 10% breakthrough) (vp AAV per mL of resin) (FFNFFKG-Toyopearl resin [6])
1 | Adeno-associated virus serotype 9 capsid (complex) | 61.7% and 43.9% and 53.7% | 72.4 | 57.2 |  |  |  |  |  |  |  |  |  |  |  |  |  |  | 
2 | Adeno-associated virus serotype 2 capsid (complex) | 54.9% and 44.8% |  |  | 0.16 | < 1.7 | < 1.7 | 79.8 | 1 to 4 | 40 to 65 | < 1.7 | 45 | < 1.7 | < 1.7 | < 1.7 | < 1.7 | < 1.7 | 1.33e+13 | 1.4e+13

Source: publication PMC10440015
